Where a chain is given by its changes, count along the chain named.
T1: SdrF N1N2N3 (52-679), His-tagged recombinant A domain of S. epidermidis SdrF (Staphylococcus epidermidis (K28 genomic …, UniProt Q9KI14 53-678))
T1 construct: expressed in E. coli; also called SdrF A domain
T1 sequence: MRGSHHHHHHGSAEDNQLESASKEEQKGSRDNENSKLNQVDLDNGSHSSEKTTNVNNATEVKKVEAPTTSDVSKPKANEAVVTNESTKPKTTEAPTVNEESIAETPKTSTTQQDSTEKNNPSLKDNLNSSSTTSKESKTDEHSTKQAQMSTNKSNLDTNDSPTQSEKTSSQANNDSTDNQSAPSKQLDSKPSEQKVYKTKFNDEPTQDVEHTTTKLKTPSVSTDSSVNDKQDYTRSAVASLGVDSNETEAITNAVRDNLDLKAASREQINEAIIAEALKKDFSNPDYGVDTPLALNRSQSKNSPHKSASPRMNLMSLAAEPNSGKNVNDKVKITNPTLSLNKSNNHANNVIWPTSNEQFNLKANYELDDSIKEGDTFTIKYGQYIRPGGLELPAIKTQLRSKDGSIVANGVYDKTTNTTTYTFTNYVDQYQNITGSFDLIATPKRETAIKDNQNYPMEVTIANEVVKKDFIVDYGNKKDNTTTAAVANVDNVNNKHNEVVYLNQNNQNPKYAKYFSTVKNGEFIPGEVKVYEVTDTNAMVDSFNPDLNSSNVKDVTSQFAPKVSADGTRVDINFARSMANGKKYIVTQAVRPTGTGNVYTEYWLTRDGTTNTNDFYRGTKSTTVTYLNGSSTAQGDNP

T2: SdrF N3 (517-679), His-tagged recombinant fragment (Staphylococcus epidermidis (K28 genomic …, UniProt Q9KI14 517-678))
T2 construct: expressed in E. coli
T2 sequence: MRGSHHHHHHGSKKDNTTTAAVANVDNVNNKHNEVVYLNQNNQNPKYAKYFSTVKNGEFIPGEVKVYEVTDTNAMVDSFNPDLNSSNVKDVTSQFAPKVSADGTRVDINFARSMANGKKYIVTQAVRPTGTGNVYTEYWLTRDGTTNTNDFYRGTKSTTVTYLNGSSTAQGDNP

T3: SdrF N2N3 (361-679), His-tagged recombinant fragment (Staphylococcus epidermidis (K28 genomic …, UniProt Q9KI14 361-678))
T3 construct: expressed in E. coli
T3 sequence: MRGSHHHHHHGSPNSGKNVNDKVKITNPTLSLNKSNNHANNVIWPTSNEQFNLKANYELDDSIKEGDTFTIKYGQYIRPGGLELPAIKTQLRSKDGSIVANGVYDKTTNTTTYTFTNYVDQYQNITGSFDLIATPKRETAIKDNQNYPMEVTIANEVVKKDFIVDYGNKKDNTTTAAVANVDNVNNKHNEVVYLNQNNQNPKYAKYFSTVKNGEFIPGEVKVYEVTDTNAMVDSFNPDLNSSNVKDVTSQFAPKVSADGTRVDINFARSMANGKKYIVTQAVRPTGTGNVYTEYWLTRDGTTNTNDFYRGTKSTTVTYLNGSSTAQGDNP

T4: SdrF N2 (361-517), His-tagged recombinant fragment (Staphylococcus epidermidis (K28 genomic …, UniProt Q8CMP4 361-517))
T4 construct: expressed in E. coli
T4 sequence: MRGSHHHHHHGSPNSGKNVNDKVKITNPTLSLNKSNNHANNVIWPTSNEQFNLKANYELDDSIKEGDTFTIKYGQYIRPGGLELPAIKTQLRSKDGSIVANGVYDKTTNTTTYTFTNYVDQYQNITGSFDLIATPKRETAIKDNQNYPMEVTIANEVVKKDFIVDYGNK

B1: murine anti-SdrF monoclonal antibody 108-1 (antibody, V domains shown)
VH: EVQLQQSGAELVKPGASVKLSCTASGFNIKDTYIHWVKQRPEQGLEWIGRIDPANGNTHYDSQFQGKATITADTSSNTAYLQLSSLTSDDTAVYYCTRRVGYAMDYWGQGTSVTVSS
VL: DIVMTQSHKFMSTSVGDRVIITCKASQDVNTALAWYQQKPGQSPKLLIYSASYRYTGVPDRFTGSGSGTDFTFTISSVQAEDLAVYYCQQHYSTPPYTFGGGTKLEIK
notes: Mouse hybridoma antibody (Balb/C, fusion F108)
B2: murine anti-SdrF monoclonal antibody 108-36 (antibody, V domains shown)
VH: QVTLRESGPGILQPSQTLSLTCSFSGFSLNTSGMGVTWIRQPSGKGLEWLANIYWDDDKRYNPSLKSRLTISKANSRNQVFLKITSVDTADTATYYCTRPNYLGTVYWYFDVWGAGTMVTVSS
VL: QIVLTQSPAIMSASPGEKVTMTCSASSSVSYMYWYQQKPGSSPRVLIYDTSNLASGVPVRFSGSGSGTSYSLTISRMEAEDAATYYCQQWNGYPPTFGAGTKLEVK
notes: Mouse hybridoma antibody (fusion F108)
B3: murine anti-SdrF monoclonal antibody 110-15 (antibody, V domains shown)
VH: EVQLVESGGGLVKPGGSLKLSCAASGFAFSSYDMSWVRQTPEKRLEWVAYISSGGGITYYPDTVKGRFTISRDNAKNTLYVQMSSLKSEDTAIYYCTRHDRDSWFAYWGQGTLVTVSA
VL: B2 VL with K18E, V19G, S30R, Q36R, V45L, N91S, G92S, A99G, V105M
notes: Mouse hybridoma antibody (fusion F110); also called Murine 110-15; 110-15VL-Mouse/110-15VH-Mouse
B4: Humanized 110-15 (antibody, V domains shown)
VH: B3 VH with K13Q, A75S, K87R, S88A, I93V, A118S
VL: EIVLTQSPGTMSASPGERGTMSCSASSSVRYMYWYRQKPGQSPRLLIYDTSNLASGVPARFSGSGSGTSYSLTISRMEAEDAATYYCQQWSSYPPTFGGGTKLEMK
notes: Humanized (veneered) variable regions with 'the appropriate light or heavy chain constant region', expressed in NSO cells; also called 110-15VL-Hu/110-15VH-Hu
B5: Humanized 108-1 (antibody, V domains shown)
VH: B1 VH with E1Q, Q5V, L11V, T23K, E42G, S76T, N77S, T87R, D89E, S112T
VL: B1 VL with H8Q, I20T, D60S, T63S
notes: Humanized (veneered) variable regions spliced into plasmids with 'the appropriate light or heavy chain constant region', expressed in NSO cells
B6: Humanized 108-36 (antibody, V domains shown)
VH: B2 VH with Q13K, S23T, T89P, A90V, A115Q
VL: B2 VL with Q1E, I10T, K18R, T22S, S41Q, V59S, R76S, A79P, A99G
modifications: N-linked carbohydrate chain on the asparagine at position 30 of the variable heavy chain
notes: Humanized (veneered) variable regions with 'the appropriate light or heavy chain constant region', expressed in NSO cells; also called Hu108-36

The binders below were run against T1, SdrF N1N2N3 (52-679), His-tagged … (assay: Biacore 3000, mAb captured on anti-F(ab)2 chip, SdrF (N1N2N3) in flow).
B1 showed a Ka of 6.2e+08 M⁻¹, a Kd of 1610 pM and a koff of 0.000134 s⁻¹. The kon was 82900 M⁻¹ s⁻¹.
Binder B2 has a Ka of 4.52e+09 M⁻¹, a Kd of 221 pM and a koff of 5.6e-05 s⁻¹. The kon was 232000 M⁻¹ s⁻¹.
In the case of B3, the Ka is reported as 1.29e+09 M⁻¹, the Kd is reported as 774 pM and the koff is reported as 0.000164 s⁻¹. The kon was 212000 M⁻¹ s⁻¹.

These binders were tested against T2, SdrF N3 (517-679), His-tagged … (assay: ELISA, plate coated with SdrF N3).
B2: no binding.
B3: no binding.

What follows are binders tested against T1, SdrF N1N2N3 (52-679), His-tagged … (assay: ELISA, plate coated with SdrF N1N2N3, hybridoma supernatant).
For B1, the “ELISA OD405” value was 0.89 OD405.
With B2 the “ELISA OD405” value was 0.77 OD405.
B3 was tested, and the “ELISA OD405” value was 0.63 OD405.

These binders were tested against T1, SdrF N1N2N3 (52-679), His-tagged … (assay: Biacore, mAb captured via RAM-Fc, SdrF injected).
With B1 the “Biacore SdrF bound” value was 146.
For B2, the “Biacore SdrF bound” value was 146.
In the case of B3, the “Biacore SdrF bound” value is reported as 153.

What follows are binders tested against T1, SdrF N1N2N3 (52-679), His-tagged … (assay: Biacore 3000, ligand capture of mAb, SdrF (N1N2N3) in flow).
With B4 the Ka was 1.4e+09 M⁻¹, the Kd was 740 pM and the koff was 0.00013 s⁻¹. It also gave a kon of 170000 M⁻¹ s⁻¹.
B1 was tested, and the Ka was 6.2e+08 M⁻¹, the Kd was 1600 pM and the koff was 0.00013 s⁻¹. For the same binder, the kon was 83000 M⁻¹ s⁻¹.
In the case of B5, the Ka is reported as 5.6e+08 M⁻¹, the Kd is reported as 1800 pM and the koff is reported as 0.00017 s⁻¹. For the same binder, the kon was 94000 M⁻¹ s⁻¹.
With B2 the Ka was 4.5e+09 M⁻¹, the Kd was 220 pM and the koff was 5.6e-05 s⁻¹. For the same binder, the kon was 230000 M⁻¹ s⁻¹.
B3 gave a Ka of 1.3e+08 M⁻¹, a Kd of 770 pM and a koff of 0.00016 s⁻¹. For the same binder, the kon was 210000 M⁻¹ s⁻¹.
Binder B6 has a Ka of 2.2e+09 M⁻¹, a Kd of 460 pM and a koff of 6.3e-05 s⁻¹. It also gave a kon of 140000 M⁻¹ s⁻¹.

The binders below were run against T3, SdrF N2N3 (361-679), His-tagged … (assay: ELISA, plate coated with SdrF N2N3, hybridoma supernatant).
For B1, the “ELISA OD405” value was 0.99 OD405.
B2 was tested, and the “ELISA OD405” value was 0.72 OD405.
B3 was tested, and the “ELISA OD405” value was 0.7 OD405.

These binders were tested against T4, SdrF N2 (361-517), His-tagged … (assay: ELISA, plate coated with SdrF N2).
B3: no binding.

From patent US20100183623A1 (INHIBITEX, published 2010)
